# Test results: patent US10954305B2 (Immunomedics, Inc., priority 2016, dated 2021)
# Columns and labels:
# urothelial cancer = assay: Phase I/II clinical trial of IMMU-132, urothelial; assay type: in vivo, human; conditions: 11 assessable patients, 8 or 10 mg/kg
# NCI-N87-S-120 tumors = assay: SN-38-resistant xenograft therapy; conditions: IMMU-132 0.5 mg twice weekly ×4 weeks; irinotecan 40 mg/kg q2dx5
# [1] = test system: metastatic pancreatic cancer; assay: Phase I/II clinical trial of IMMU-132, PDC; assay type: in vivo, human
# [2] = tolerability in Cynomolgus monkeys; assay type: in vivo
# Method: FIG. 6C. […] All animals were bled on day −1, 3, and 6. Four monkeys were bled on day 11 in the 0.96 mg/kg group, 3 in the 1.92 mg/kg group. Changes in neutrophil counts in Cynomolgus monkeys.
# FIG. 6D. […] All animals were bled on day −1, 3, and 6. Four monkeys were bled on day 11 in the 0.96 mg/kg group, 3 in the 1.92 mg/kg group. Changes in platelet counts in Cynomolgus monkeys.
# [3] = test system: NCI-N87 human gastric tumors; assay: NCI-N87 xenograft therapy (FIG. 23); conditions: 0.35 mg twice weekly for four weeks
# HCC1806 (Trop-2+) = assay: dsDNA breaks, rH2AX flow cytometry; assay type: cell-based, human; conditions: untreated baseline 168
# MDA-MB-468 TNBC tumors = assay: MDA-MB-468 TNBC xenograft therapy; assay type: in vivo, nude mice; conditions: one animal each, tumors progressed after irinotecan
# colorectal cancer = assay: Phase I/II clinical trial of IMMU-132, CRC; assay type: in vivo, human
# [4] = Phase I/II clinical trial of IMMU-132, adverse events; assay type: in vivo, human; conditions: for dose-limiting toxicity: Phase I
# From the text: The maximum tolerated dose (MTD) was judged on the patient's tolerance to the first treatment cycle.
# [5] = test system: triple-negative breast cancer; conditions: 58 evaluable mTNBC patients, RECIST1.1 (Bardia et al.); cited from earlier work
# recombinant mouse Trop-2 = target: T1, recombinant mouse Trop-2 (Mus musculus, UniProt Q8BGV3); assay: Trop-2 ELISA; assay type: binding
# T1 construct: purchased Sino Biological, Inc. 50922-MO8H
# T1 sequence (Q8BGV3 25-317): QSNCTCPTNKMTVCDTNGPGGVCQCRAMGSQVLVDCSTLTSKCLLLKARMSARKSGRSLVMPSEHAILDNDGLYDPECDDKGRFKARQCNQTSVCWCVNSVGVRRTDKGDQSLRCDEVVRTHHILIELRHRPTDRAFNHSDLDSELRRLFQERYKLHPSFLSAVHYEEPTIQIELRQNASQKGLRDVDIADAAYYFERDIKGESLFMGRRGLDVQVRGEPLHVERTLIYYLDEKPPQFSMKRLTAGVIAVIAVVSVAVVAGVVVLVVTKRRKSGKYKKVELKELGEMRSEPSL
# Method: Recombinant human Trop-2 with a His-tag (Sino Biological, Inc., Bejing, China; Cat #10428-H09H) and recombinant mouse Trop-2 with a His-Tag (Sino Biological, Inc., Cat #50922-MO8H) were plated onto Ni-NTA Hissorb strips (Qiagen GmbH Cat #35023) at 1 μg for 1 h at room temperature. The plate was washed four times with PBS-Tween (0.05%) wash buffer. Serial dilutions of hRS7 were made in 1% BSA-PBS dilution buffer to a test range of 0.1 ng/mL to 10 μg/mL. The plates were then incubated for 2 h at room temperature before being washed four times followed by the addition of a peroxidase conjugated secondary antibody (goat anti-human, Fc fragment specific; Jackson Immunoresearch Cat #109-036-098). After a 45-min incubation, the plate was washed and a substrate solution (o-phenylenediamine dihydrochloride (OPD); Sigma, Cat #P828) added to all the wells. Plates were incubated in the dark for 15 min before the reaction was stopped with 4N sulfuric acid. The plates were read at 450 nm on Biotek ELX808 plate reader. Data were analyzed and graphed using Prism GraphPad Software (v4.03) (Advanced Graphics Software, Inc.; Encinitas, Calif.).
# CDC activity = assay type: cell-based
substance,measurement,setting,value
IMMU-132,PR,urothelial cancer,6
same,survival benefit,NCI-N87-S-120 tumors,no significant survival benefit
same,decrease in serum CA19-9 titers,[1]; 3 patients with stable disease,23 to 72%
same,"duration of stable disease, range",[1]; 8 patients,8 to 21.4 wks
same,stable disease,[1]; 13 CT-assessable PDC patients,62%
same,median TTP / duration of SD,"[1]; CT-assessable PDC patients, 8.0 weeks in last prior therapy",12.7 wks
same,"TTP, range",[1]; PDC patients,2 to 21.4 wks
same,"time to progression, range","[1]; Phase I, N=7",1.0 to 4.0 months
same,median TTP,[1]; all 14 PDC patients,11.9 wks
same,MTD,"[2]; cynomolgus monkey, in vivo",2×0.96 and 1.92
same,human equivalent dose of MTD,"[2]; cynomolgus monkey, in vivo",2×0.3 to 0.6
same,blood counts,"[2]; cynomolgus monkey, in vivo, 0.96 mg/kg",only transient decreases in blood counts
same,tolerated dose,[2]; mild and reversible toxicity,0.96 mg/kg/dose
same,partial responders,[3],6 of 7
same,Median fluorescence intensity (rH2AX),HCC1806 (Trop-2+),546
same,decrease in tumor size on re-treatment,MDA-MB-468 TNBC tumors,60%
same,PD,colorectal cancer; of 18 assessable patients,6
same,PR,colorectal cancer; of 18 assessable patients,1
same,maximum reduction in target lesions,"colorectal cancer; person, after 10 months",65%
same,plasma CEA after treatment,"colorectal cancer; person, from 781 ng/mL",26.5 ng/mL
same,"grade-3 diarrhea, patients",[4]; 10 mg/kg,1
same,"Dose-limiting toxicity 1st cycle, patients","[4]; 18 mg/kg, 3 treated",2
same,neutropenia >Grade 3,[4]; 49 patients reporting related AE,28%
same,incidence of Grade 3 or higher adverse events other than neutropenia,[4]; 261 patients enrolled,less than 10%
same,"Abdominal pain, Grade 3, n (%)",[4]; N = 47,0
same,"Abdominal pain, Grade 4, n (%)",[4]; N = 47,0
same,"Anemia, Grade 3, n (%)",[4]; N = 47,2 (4%)
same,"Anemia, Grade 4, n (%)",[4]; N = 47,0
same,"Deep vein thrombosis, Grade 3, n (%)",[4]; N = 47,1 (2%)
same,"Deep vein thrombosis, Grade 4, n (%)",[4]; N = 47,0
same,"Diarrhea, Grade 3, n (%)",[4]; N = 47,4 (9%)
same,"Diarrhea, Grade 4, n (%)",[4]; N = 47,0
same,"Dysgeusia, Grade 3, n (%)",[4]; N = 47,0
same,"Dysgeusia, Grade 4, n (%)",[4]; N = 47,0
same,"Fatigue, Grade 3, n (%)",[4]; N = 47,4 (9%)
same,"Fatigue, Grade 4, n (%)",[4]; N = 47,0
same,"Febrile Neutropenia, Grade 3, n (%)",[4]; N = 47,1 (2%)
same,"Febrile Neutropenia, Grade 4, n (%)",[4]; N = 47,2 (4%)
same,"Hypokalemia, Grade 3, n (%)",[4]; N = 47,1 (2%)
same,"Hypokalemia, Grade 4, n (%)",[4]; N = 47,0
same,"Nausea, Grade 3, n (%)",[4]; N = 47,0
same,"Nausea, Grade 4, n (%)",[4]; N = 47,0
same,"Neutropenia, Grade 3, n (%)",[4]; N = 47,11 (24%)
same,"Neutropenia, Grade 4, n (%)",[4]; N = 47,2 (4%)
same,"Pyrexia, Grade 3, n (%)",[4]; N = 47,0
same,"Pyrexia, Grade 4, n (%)",[4]; N = 47,0
same,"Vomiting, Grade 3, n (%)",[4]; N = 47,1 (2%)
same,"Vomiting, Grade 4, n (%)",[4]; N = 47,0
same,"WBC Decrease, Grade 3, n (%)",[4]; N = 47,1 (2%)
same,"WBC Decrease, Grade 4, n (%)",[4]; N = 47,0
same,dose-limiting toxicity,[4],neutropenia
same,dose-limiting toxicity,[4]; listed as sacituzumab govitecan,Neutropenia
same,interim objective response rate,[5],31%
hRS7 IgG,cross-reactivity,recombinant mouse Trop-2,no cross-reactivity with the murine Trop-2
same,CDC activity,CDC activity,no CDC activity
